Data taken from the Immune Epitope Database (IEDB).

Columns and labels:
[1] = molecular target: HLA-A*02:19; experiment: IEDB peptide-MHC binding, purified MHC/direct/fluorescence; filed as Kd, often an IC50 or EC50 that approximates it; ≥ and ≤ were set here for values at or beyond the usual limits of such assays
[2] = molecular target: HLA-A*02:16; experiment: as above
[3] = molecular target: HLA-A*29:02; experiment: as above; conditions: source organism: Zaire ebolavirus
[4] = molecular target: HLA-A*02:11; experiment: as above
[5] = molecular target: HLA-A*02:03; experiment: as above
[6] = molecular target: HLA-A*23:01; experiment: as above
[7] = molecular target: HLA-A*24:03; experiment: as above
[8] = molecular target: HLA-A*02:12; experiment: as above
[9] = molecular target: HLA-A*68:02; experiment: as above
[10] = molecular target: HLA-A*03:01; experiment: as above
[11] = molecular target: HLA-B*07:02; experiment: as above
[12] = molecular target: HLA-B*39:01; experiment: IEDB peptide-MHC binding, purified MHC/competitive/fluorescence; filed as Kd, often an IC50 or EC50 that approximates it; ≥ and ≤ were set here for values at or beyond the usual limits of such assays; conditions: source organism: Zaire ebolavirus
[13] = molecular target: HLA-A*69:01; experiment: as above; conditions: source organism: Zaire ebolavirus
[14] = molecular target: HLA-B*57:01; experiment: as above
[15] = molecular target: HLA-B*18:01; experiment: as above
[16] = molecular target: HLA-B*51:01; experiment: as above; conditions: source organism: Zaire ebolavirus
[17] = molecular target: HLA-B*46:01; experiment: as above; conditions: source organism: Zaire ebolavirus
[18] = molecular target: HLA-A*02:01; experiment: as above; conditions: source organism: Zaire ebolavirus
[19] = molecular target: HLA-A*26:01; experiment: as above; conditions: source organism: Zaire ebolavirus
[20] = molecular target: HLA-B*15:17; experiment: as above
[21] = molecular target: HLA-B*27:03; experiment: as above; conditions: source organism: Zaire ebolavirus
[22] = molecular target: HLA-B*15:01; experiment: as above
[23] = molecular target: HLA-A*69:01; experiment: IEDB peptide-MHC binding, purified MHC/direct/fluorescence; filed as Kd, often an IC50 or EC50 that approximates it; ≥ and ≤ were set here for values at or beyond the usual limits of such assays; conditions: source organism: Influenza A virus (A/Wisconsin/4755/1994(H1N1))
[24] = molecular target: HLA-B*58:01; experiment: as above; conditions: source organism: Influenza A virus (A/Wisconsin/4755/1994(H1N1))
[25] = molecular target: HLA-A*26:02; experiment: as above
[26] = molecular target: HLA-B*57:01; experiment: as above; conditions: source organism: Influenza A virus (A/Wisconsin/4755/1994(H1N1))
[27] = molecular target: HLA-B*18:01; experiment: as above; conditions: source organism: Influenza A virus (A/Wisconsin/4755/1994(H1N1))
[28] = molecular target: HLA-A*11:01; experiment: as above; conditions: source organism: Influenza A virus (A/Wisconsin/4755/1994(H1N1))
[29] = molecular target: HLA-B*46:01; experiment: as above; conditions: source organism: Influenza A virus (A/Wisconsin/4755/1994(H1N1))
[30] = molecular target: HLA-A*02:01; experiment: as above; conditions: source organism: Influenza A virus (A/Wisconsin/4755/1994(H1N1))
[31] = molecular target: HLA-B*27:05; experiment: as above; conditions: source organism: Influenza A virus (A/Wisconsin/4755/1994(H1N1))
[32] = molecular target: HLA-A*26:01; experiment: as above; conditions: source organism: Influenza A virus H3N2
[33] = molecular target: HLA-B*40:01; experiment: as above; conditions: source organism: Influenza A virus (A/Wisconsin/4755/1994(H1N1))
[34] = molecular target: HLA-B*15:17; experiment: as above; conditions: source organism: Influenza A virus (A/Wisconsin/4755/1994(H1N1))
[35] = molecular target: HLA-B*08:01; experiment: as above; conditions: source organism: Influenza A virus (A/seal/Mass/1/1980(H7N7))
[36] = molecular target: HLA-B*48:01; experiment: as above; conditions: source organism: Influenza A virus (A/Wisconsin/4755/1994(H1N1))
[37] = molecular target: HLA-A*01:01; experiment: as above; conditions: source organism: Influenza A virus (A/Wisconsin/4755/1994(H1N1))
[38] = molecular target: HLA-B*15:01; experiment: as above
[39] = molecular target: HLA-A*31:01; experiment: as above; conditions: source organism: Influenza A virus (A/Wisconsin/4755/1994(H1N1))
[40] = molecular target: HLA-A*26:02; experiment: IEDB peptide-MHC binding, purified MHC/competitive/fluorescence; filed as Kd, often an IC50 or EC50 that approximates it; ≥ and ≤ were set here for values at or beyond the usual limits of such assays; conditions: source organism: Human immunodeficiency virus 1
[41] = molecular target: HLA-A*02:03; experiment: as above; conditions: source organism: Human immunodeficiency virus 1
[42] = molecular target: HLA-A*11:01; experiment: as above; conditions: source organism: Human immunodeficiency virus 1
[43] = molecular target: HLA-A*02:06; experiment: as above; conditions: source organism: Human immunodeficiency virus 1
[44] = molecular target: HLA-A*30:01; experiment: as above; conditions: source organism: Human immunodeficiency virus 1
[45] = molecular target: HLA-A*01:01; experiment: as above; conditions: source organism: Human immunodeficiency virus 1
[46] = source organism: Zaire ebolavirus
[47] = source organism: Sudan ebolavirus - Maleo (1979)
[48] = source organism: Influenza A virus (A/Wisconsin/4755/1994(H1N1))
[49] = source organism: Human immunodeficiency virus 1
[50] = source organism: Ravn virus - Ravn, Kenya, 1987

Work on TPSHYSGNI yielded a Kd [1, 46] of at least 20 µM, a Kd [2, 46] of at least 20 µM and a Kd [3] of at least 20 µM. It also gave a Kd [4, 46] of at least 20 µM, a Kd [5, 46] of at least 20 µM and a Kd [6, 46] of at least 20 µM. The Kd [7, 46] was at least 20 µM, the Kd [8, 46] was at least 20 µM and the Kd [9, 46] was at least 20 µM. The Kd [10, 46] was at least 20 µM, the Kd [11, 47] was 442 nM and the Kd [12] was at least 20 µM. It also gave a Kd [13] of at least 20 µM, a Kd [14, 46] of at least 20 µM and a Kd [15, 46] of at least 20 µM. It also gave a Kd [16] of at least 20 µM, a Kd [17] of at least 20 µM and a Kd [18] of at least 20 µM. For the same sequence, the Kd [19] was at least 20 µM, the Kd [20, 46] was at least 20 µM and the Kd [21] was at least 20 µM. The Kd [22, 46] was at least 20 µM.
DPKKTGGPI showed a Kd [23] of at least 20 µM, a Kd [24] of at least 20 µM and a Kd ([25]; source organism: Influenza A virus H3N2) of at least 20000 nM. For the same sequence, the Kd [26] was at least 20 µM, the Kd [27] was at least 20 µM and the Kd [28] was at least 20 µM. The Kd [29] was at least 20 µM, the Kd [30] was at least 20 µM and the Kd [31] was at least 20 µM. The Kd [32] was at least 20 µM, the Kd [33] was at least 20 µM and the Kd [34] was at least 20 µM. For the same sequence, the Kd [35] was at least 20 µM, the Kd [9, 48] was at least 20 µM and the Kd [10, 48] was at least 20 µM. It also gave a Kd ([11]; source organism: Influenza A virus (A/seal/Mass/1/1980(H7N7))) of 84.9 nM, a Kd [36] of at least 20 µM and a Kd [37] of at least 20 µM. It also gave a Kd [38, 48] of at least 20000 nM and a Kd [39] of at least 20 µM.
Work on KSLYNTIATLY yielded a Kd [40] of 1060 nM, a Kd [14, 49] of 0.652 µM and a Kd [15, 49] of 0.346 µM. It also gave a Kd [41] of at least 20 µM, a Kd [42] of 697 nM and a Kd [43] of 2020 nM. It also gave a Kd [44] of at least 20 µM, a Kd [20, 49] of 0.0126 µM and a Kd [45] of 2910 nM. It also gave a Kd [22, 49] of at least 20 µM.
In the case of EYTDYMPSM, the Kd ([25]; source organism: Dengue virus 2 Thailand/16681/84) is reported as 26 nM.
PQVLGGLSF showed a Kd [1, 50] of at least 20 µM, a Kd [2, 50] of at least 20 µM and a Kd [4, 50] of at least 20 µM. For the same sequence, the Kd [5, 50] was at least 20 µM, the Kd [6, 50] was at least 20 µM and the Kd [7, 50] was at least 20 µM. It also gave a Kd [8, 50] of at least 20 µM, a Kd [9, 50] of at least 20 µM and a Kd [10, 50] of at least 20 µM. The Kd [38, 47] was 475 nM, the Kd [12] was at least 20 µM and the Kd [13] was at least 20 µM. The Kd [14, 46] was at least 20 µM, the Kd [15, 46] was at least 20 µM and the Kd [16] was at least 20 µM. The Kd [17] was at least 20 µM, the Kd [18] was at least 20 µM and the Kd [19] was at least 20 µM. It also gave a Kd [20, 46] of at least 20 µM and a Kd [21] of at least 20 µM.
